Results as given in patent US20240245856A1, “Electromechanical Devices for the Burst Release of Indefinitely Stable Dry Powder Drugs” (Massachusetts Institute of Technology, priority 2023, published 2024).
Like-named read-outs stand apart in the source and are kept apart here.

Key:
[1] = In vivo IVIS fluorescence imaging of release from subcutaneously implanted device; design: species or system mice; conditions: for biodistribution (IVIS imaging of major organs): organs imaged 40 minutes after subcutaneous release
Description: Imaging studies with fluorescently labeled lyophilized insulin-dye conjugates (Ins-Cy7) validate burst release in vivo, over timescales of about 10 minutes. Devices (e.g., device 100) were implanted in subcutaneous sites, with release apertures 171 facing into muscle beds (the complete surgical implantation procedure is disclosed below).
An equivalent set of studies with glucagon conjugated with cy7 (GCG-cy7) reveal similar release profiles as illustrated in FIG. 5A with strong fluorescence visible within the first 20 minutes following release. […] As shown herein, dry-powder injection directly into subcutaneous sites may function as a mechanism to both maintain long-term drug stability and ensure rapid action following release.
Animals were anesthetized via isoflurane and placed in an in vivo imaging system (IVIS). Baseline fluorescent measurements tuned to emission peaks of cy7 (exposure time 3 seconds, 640 nm<wavelength<840 nm) established pre-release fluorescence profiles. A primary antenna placed in close proximity to the device for about 1 minute induced wireless drug release. Sequential imaging following release at intervals of about 5 minutes then allowed for imaging of fluorescence signals resulting from drug dissolution and diffusion. […]

healthy C57/BL6J mice = conditions: for time after release at which increase in BG is evident / time after release at which increase in HR is evident: 1 mg pill, 5%-95% Epinephrine-Lactose, subcutaneous, mice
Description: To test this, studies with epinephrine, a naturally occurring circulating neurotransmitter hormone produced by the adrenal medulla, were performed and used as emergency medication in the treatment of anaphylaxis, cardiac arrest, asthma, and hypotension. Epinephrine release targets adrenergic receptors is accompanied by increases in heart rate (HR).
In vivo epinephrine release involved studies on anesthetized adult, male, healthy C57/BL6J mice. Mice were implanted with emergency rescue devices containing epinephrine doses of 1.4 mg/kg via the surgical procedures described above and allowed to recover for a 3-day period. On day 3, mice were carefully anesthetized via the flow of 1% isoflurane, and hair around the dorsal neck region was removed via the application of a depilatory cream (e.g., Nair). A collar-mounted optical probe (e.g., a MouseOx, Starr Life Science, Oakmont, PA) was then used to track heart rate. Additional biomarkers measured by the probe included oxygen saturation (SpO2), pulse-width distension (a measure of blood flow) and breath rate. Animals were monitored until their heart rate reached steady values of 380-400 bpm. A primary transmitter antenna was then brought into close proximity for 2-5 minutes to induce wireless release. Anesthetized animals were then monitored via optical probe measurements for 30 minutes, followed by euthanasia and explantation to evaluate opening and drug dissolution.

[2] = HPLC drug dissolution testing of glucagon pills in PBS; assay type: physicochemical; conditions: 37° C., across a range of loading fractions
Description: Capabilities in closed-loop burst release enabled by wireless communication between commercially available biosensors and emergency rescue devices represent a feature of this technology. One example is the combination of glucagon release with CGM technology for fully closed-loop glucose-responsive hypoglycemic rescue during periods of sleep or hypoglycemia unawareness and in pediatric patients who are unable to self-administer glucagon. […] Benchtop testing in a physiological mimic glucose solution was also performed. […]
Several known concentrations of glucagon (x, unit μM) were tested with the HPLC and the corresponding absorbance peak areas (y, A.U.) were measured. […] This equation yields glucagon concentrations of testing solutions at different time points via measurements of absorbance peak areas. […]
HPLC was performed under the following conditions using an Agilent InfinityLab Poroshell 120 (EC-C18, 4.6 mm×100 mm, 2.7 μm particle size) at 25° C., using 0.1% formic acid in water (solvent A) and acetonitrile (solvent B) at 0.6 ml/min. […] Glucagon UV absorption was monitored at 280 nm with retention time (Rt)=19.2 min.

[3] = system: C57/BL6 mice with chemically induced diabetes via Streptozotocin (STZ); test: Post-fasting glucagon release in diabetic mice (blood glucose); assay type: in vivo; conditions: glucagon release studies in diabetic mice
Description: In an initial set of experiments (results shown in FIG. 5C) mice were fasted to induce mild hypoglycemia baseline BG 113±1.9 mg dl^−1). Wireless release is triggered at time t=0 minutes by placing the awake, freely moving mice in a modified enclosure capable of providing wireless power at 13.56 MHz. Successive measurements then reveal a rapid rise in BG measurements relative to baselines, with a peak value ([…]) occurring at tmax=15 minutes following release. […] Following release, explantation confirmed complete opening and dissolution of the pills (FIG. 22).
0.5 μl volumes of blood were collected via tail-pricks with 25-27G and measured with a commercial handheld blood glucose meter (e.g., a Clarity, BG1000). The upper limit of measurements is 600 mg/dl on these systems and values above this were recorded as 600 mg/dl for analysis. Non-fasting values were recorded for 7-10 days following implantation, after which BG values were recorded following a 2.5 hour fast. Mice were weighed before and after fasting periods. Measurements in experimental groups (O2, Non O2 controls) were recorded in triplicate to account for any variability in readings and averaged.
(i) Post-fasting studies: These studies were performed […] after device implantation in STZ-induced diabetic BL6 mice. […] BG values recorded immediately following release served as t=0 minutes measurements. […]

[4] = cited from earlier work
[5] = system: blood glucose concentrations; conditions: administration for acute hypoglycemia; cited from earlier work
[6] = 30 minutes after release, 1 mg pill 5%-95% Epinephrine-Lactose, n=3

With “GCG-cy7: glucagon conjugated with cy7; 1-mg glucagon-lactose (4%-96% by weight) pill labeled with fluorescent dye” the “biodistribution (IVIS imaging of major organs)” value [1] was “confinement to liver site” and the “time after release at which strong fluorescence is visible” value ([1]; release 2 days after subcutaneous implantation) was ≤ 20 min.
In the case of “Ins-Cy7: fluorescently labeled lyophilized insulin-dye conjugates; 1 mg Insulin-cy7-Lactose (4%-96% by weight) pills”, the “fluorescence before wireless release” value ([1]; implanted sealed device, until release 7 days after implantation) is reported as “no detectable fluorescence”, the “biodistribution (IVIS imaging of major organs)” value [1] is reported as “confined to the liver” and the “timescale of burst release in vivo” value ([1]; subcutaneous device, mice, IVIS) is reported as “about 10 minutes”. For the same compound, the “time after release at which fluorescence is detectable” value ([1]; subcutaneous site, release on day 7) was ≤ 5 min and the “increase in local fluorescence intensity (ROI)” value ([1]; within the first 15 minutes following release, n=3 mice) was “roughly tenfold”.
In the case of `CNC[C@H](O)c1ccc(O)c(O)c1` [Epinephrine], the “time after release at which increase in BG is evident” value (healthy C57/BL6J mice) is reported as ≤ 10 min, the “time after release at which increase in HR is evident” value (healthy C57/BL6J mice) is reported as ≤ 10 min and the “time after release at which increase in BG is evident” value (healthy C57/BL6J mice; listed as epinephrine) is reported as ≤ 5 min. The “time after release at which increase in HR is evident” value (healthy C57/BL6J mice; listed as epinephrine) was ≤ 5 min, the ΔBG (healthy C57/BL6J mice; [6]) was 66 ± 23 mg/dL and the ΔHR (healthy C57/BL6J mice; [6]) was 140±33 bpm. For the same compound, the “correlation of other biomarkers (heart rate, SpO2, pulse-width distension) with release” value (healthy C57/BL6J mice; pills at 0.3 mg/kg and 1.5 mg/kg versus sham implants) was “weak correlation”.
In the case of glucagon, the “dissolution of dry powder drug (HPLC)” value [2] is listed as “rapid dissolution”, the “time to increase in blood glucose after release” value [3] is listed as < 10 min and the stability in solution [4] is listed as < 1 days. The “time to increase in blood glucose concentrations” value [5] was < 10 min.
